Assays:
[1] = molecular target: T1, membrane-bound human IL-6R (human, UniProt P08887 20-468); assay: flow cytometry on HepG2 cells, goat anti-human IgG Alexa Fluor 647
T1 construct: whole, on cells; also called mIL-6R; membrane IL-6R
T1 sequence (looked up): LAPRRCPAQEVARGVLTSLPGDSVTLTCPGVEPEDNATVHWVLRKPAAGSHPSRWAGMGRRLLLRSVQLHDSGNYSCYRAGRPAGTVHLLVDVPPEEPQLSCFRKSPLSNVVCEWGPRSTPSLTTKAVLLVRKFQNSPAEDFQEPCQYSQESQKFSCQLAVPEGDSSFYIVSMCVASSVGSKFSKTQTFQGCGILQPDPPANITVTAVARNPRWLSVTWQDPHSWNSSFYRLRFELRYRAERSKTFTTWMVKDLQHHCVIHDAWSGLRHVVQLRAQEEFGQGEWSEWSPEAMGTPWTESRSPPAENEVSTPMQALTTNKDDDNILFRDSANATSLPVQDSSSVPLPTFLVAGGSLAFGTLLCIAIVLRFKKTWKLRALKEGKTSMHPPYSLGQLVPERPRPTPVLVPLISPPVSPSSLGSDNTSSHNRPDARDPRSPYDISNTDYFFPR
Description: Cell surface staining is performed on HepG2 cells with different doses of mAbs. […] Each experiment was performed in triplicates.

[2] = molecular target: soluble human IL-6Rc (shuIL-6Rc) recombinant fusion protein of IL-6R and IL-6 (human) (UniProt P08887); assay: SPR (Biacore 2000), mAb captured on anti-human IgG Fc, analyte in solution, 25 C, 1:1 Langmuir
[3] = molecular target: T2, carrier-free soluble human IL-6R (R&D) (human, UniProt P08887 20-365); assay: as above
T2 construct: extracellular domain; also called shuIL-6R; shuIL6-R
T2 sequence (looked up): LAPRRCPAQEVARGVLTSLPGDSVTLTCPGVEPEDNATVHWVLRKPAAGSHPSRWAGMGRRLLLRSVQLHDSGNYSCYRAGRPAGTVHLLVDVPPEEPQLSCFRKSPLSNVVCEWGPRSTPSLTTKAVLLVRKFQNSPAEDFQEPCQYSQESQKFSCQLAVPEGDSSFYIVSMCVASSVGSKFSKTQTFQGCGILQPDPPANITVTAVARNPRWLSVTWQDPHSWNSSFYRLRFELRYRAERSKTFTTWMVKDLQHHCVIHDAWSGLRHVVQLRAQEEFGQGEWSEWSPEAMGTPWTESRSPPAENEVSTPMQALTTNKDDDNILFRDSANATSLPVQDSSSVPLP
Description: (§1) A CM5 Biacore chip was used and 1640 RU (response units) of an anti-human IgG Fc (Biacore AB, Uppsala, Sweden) was immobilized by EDC/NHS chemistry. […] The surface was regenerated after each cycle by injection of 3M magnesium chloride at 20 μL/min, for 30 s followed by lmin of stabilization time in HBS-EP buffer (Biacore AB, Uppsala, Sweden). Binding was measured by passing analytes carrier-free soluble human IL-6R (shuIL6-R; R&D), soluble human IL-6Rc (shuIL-6Rc) and soluble cynomolgus monkey IL-6R (scyIL-6R) in duplicates at the following concentrations: 100 nM, 50 nM, 25 nM, 12.5 nM, 6.25 nM and 0nM. All solutions were diluted in HBS-EP buffer. Injection was performed at 50 μl/min for 3 min followed by 12 min of dissociation time and the temperature was set at 25° C.

[4] = molecular target: T3, soluble cynomolgus monkey IL-6R (cynomolgus monkey, UniProt A0A2K5WN54 60-396); assay: as above
T3 construct: extracellular domain; also called scyIL-6R; soluble cynomolgus monkey IL-6 Receptor; not shown: C-terminal His- or Avi-Tag
T3 sequence: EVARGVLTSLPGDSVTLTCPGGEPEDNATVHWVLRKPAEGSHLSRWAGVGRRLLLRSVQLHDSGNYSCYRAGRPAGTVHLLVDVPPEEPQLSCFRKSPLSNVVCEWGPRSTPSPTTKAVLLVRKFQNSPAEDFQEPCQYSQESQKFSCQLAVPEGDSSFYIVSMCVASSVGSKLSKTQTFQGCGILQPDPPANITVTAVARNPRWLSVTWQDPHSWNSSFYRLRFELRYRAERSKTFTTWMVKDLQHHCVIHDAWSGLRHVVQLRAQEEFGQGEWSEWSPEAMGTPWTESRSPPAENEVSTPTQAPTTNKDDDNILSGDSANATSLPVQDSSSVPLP
Description: as §1

FULLY MOUSE IL-6R = molecular target: T4, FULLY MOUSE IL-6R (mouse, UniProt P22272); assay: flow cytometry on PEAK cells displaying the IL-6R variant, goat anti-human IgG Alexa Fluor 647
T4 construct: also called chimeric receptor #5
T4 sequence (receptor chain, looked up): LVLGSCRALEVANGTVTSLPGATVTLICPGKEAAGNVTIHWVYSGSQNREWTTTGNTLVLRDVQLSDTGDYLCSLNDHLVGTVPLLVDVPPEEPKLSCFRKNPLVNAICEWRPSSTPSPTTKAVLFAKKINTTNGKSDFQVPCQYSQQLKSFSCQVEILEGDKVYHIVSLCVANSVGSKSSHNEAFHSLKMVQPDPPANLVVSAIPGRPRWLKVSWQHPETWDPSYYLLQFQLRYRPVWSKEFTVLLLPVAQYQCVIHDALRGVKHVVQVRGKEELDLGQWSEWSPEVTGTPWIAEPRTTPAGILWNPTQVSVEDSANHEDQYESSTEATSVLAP
Source text: An overlap extension PCR strategy was used to generate coding sequences specifying huIL-6R/mouseIL-6R chimeric proteins (FIG. 6A) and mouse IL-6R proteins containing human amino acid substitutions in D3 domains (FIG. 6B). Partially overlapping mutagenic oligonucleotide primers were used for PCR amplification of N- and C-terminal sequences on either side of huIL-6R/mouse IL-6R junctions or substituted regions, followed by gel isolation and annealing of the denatured PCR products. Full length PCR products were then digested by EcoRI and BglII and ligated into a pDISPLAY™ vector (Invitrogen). PEAK cells were grown in DMEM medium supplemented with 10% fetal calf serum and 4 mM L-glutamine. Cells were plated 12 to 24 h before transfection to have 40-50% confluency in 6 well plates. Transfections of pDISPLAY™ vectors (Invitrogen) were carried out by lipofection using TransIT® LT1 reagent (MirusBio) according manufacturer's specifications. Cells were grown for 48 h before harvesting and analysis by flow cytometry.
Cell surface staining was performed on PEAK cells displaying each variant of IL-6R and analyzed by flow cytometry (FIG. 6B-D). Cell surface expression of each chimeric IL-6R was assessed using an anti-human-CD126 PE or an anti-mouse CD126-PE antibody (BD Pharmingen).

B1: NI-1201 wild type (NI-1201-WT) antibody (antibody, V domains shown)
VH: QVQLVQSGAEVKKPGSSVKVSCKASGGTFSSYAISWVRQAPGQGLEWMGGIIPLFDTTKYAQQFQGRVTITADESTSTAYMELSSLRSEDTAVFYCARDRDILTDYYPMGGMDVWGQGTTVTVSS
VL: AIQLTQSPSSLSASVGDRVTITCRASQGISSVLAWYQQKPGKAPKLLIYDASSLESGVPSRFSGSGSGTDFTLTISSLQPEDFATYYCQQSNSYPLTFGGGTKVEIKR
notes: Fully human monoclonal IgG (captured by anti-human IgG Fc in Biacore); also called 39B9 VL1
For B1, the “EC50 (read off the curve)” value [1] was about 0.2 µg/mL, the Kd [2] was 5.64 nM and the koff [2] was 0.000243 s⁻¹. For the same binder, the kon [2] was 43100 M⁻¹ s⁻¹, the Kd [3] was 0.0567 nM and the koff [3] was 7.53e-05 s⁻¹. For the same binder, the kon [3] was 1.33e+06 M⁻¹ s⁻¹, the Kd [4] was 2.04 nM and the koff [4] was 0.000215 s⁻¹. For the same binder, the kon [4] was 106000 M⁻¹ s⁻¹ and the binding result (FULLY MOUSE IL-6R) was “no binding”.

Source: patent US20160130351A1 (NOVIMMUNE S A, published 2016)
